Measured values from patent publication US7645449B2, “Sensitizing cells for apoptosis by selectively blocking cytokines” (priority 2003, dated 2010).

Key:
Type in all cases: cell-based, human
[1] = tested on: primary breast carcinoma cells; assay: Bcl-XL expression and chemosensitivity of primary breast carcinoma cells cultivated with or without IL-4; conditions: 6 days of in vitro culture in the presence of IL-4
Text: To confirm that IL-4-induced upregulation of Bcl-XL is able to protect epithelial breast cells from apoptosis, freshly isolated normal breast epithelial cells were exposed to IL-4 and analyzed Bcl-XL expression and sensitivity to a panel of chemotherapeutic drugs commonly used to treat breast cancer. […] To confirm that in vivo exposure to IL-4 is responsible for high Bcl-XL expression and resistance to chemotherapy in breast cancer, Bcl-XL expression and sensitivity to apoptosis of primary breast carcinoma cells cultivated in the presence or absence of IL-4 was measured Freshly isolated breast cancer cells expressed high levels of Bcl-XL and were scarcely sensitive to chemotherapeutic drugs (FIGS. 14C and D). […] Thus, in vivo IL-4 production promotes the survival of breast cancer cells. […]
Cell pellets were washed twice with cold PBS and lysed on ice for 30 minutes with 1% NP40 lysis buffer (20 mM Tris-HCl pH 7.2, 200 mM NaCl, 1% NP40) in the presence of 1 mM phenylmethylsulphonyl fluoride (PMSF) and 2 μg/ml each of aprotinin, leupeptin and pepstatin. […] Lysate concentration was determined using the Bio-Rad protein assay (Bio-Rad Laboratories, Richmond, Calif.). […]

[2] = tested on: LNCaP prostate cancer cells; assay: MTS viability of LNCaP cells: chemotherapy- and anti-CD95-induced apoptosis
Experimental: Human LNCAP prostate cancer cell line and human MDA-MB-231 breast cancer cell line were obtained from the American Type Culture Collection (ATCC, Manassas, Va.). Human RT112 bladder carcinoma cell line was kindly provided by Dr. M. Cippitelli (Regina Elena Cancer Institute, Rome, Italy). Cells were grown in RPMI 1640 (Life Technologies Inc., Grand Island, N.Y.) containing 10% heat inactivated fetal bovine serum supplemented with L-Glutamine 2 mM and 100 units/ml Penicillin-Streptomycin. Cells were kept in 5% CO2 atmosphere and routinely passaged when 80-85% confluent. […]
Cell viability was determined using the CellTiter 96® AQueous One Solution Cell Proliferation Assay (Promega, Madison, Wis.), according to the manufacturer's instructions. The assay is based on reduction of 3-(4,5-dimethylthiazol-2-yl)-5-(3-carboxymethoxyphenyl)-2-(4-sulfophenyl)-2H-tetrazolium, inner salt (MTS) to a colored formazan product that is measured spectrophotometrically. […] After 3 hours of incubation at 37° C. with the MTS reagent, the plates were read on a Multilabel Counter (Victor2, Wallac, Perkin-Ehmer Inc., Norwalk, Conn.) and dye absorbance was measured at 490 nm.
The percentage of apoptotic cells was derived from the percentage of viable cells that was directly calculated from the values of the MTS assay.

[3] = tested on: Bcl-xL and cFlip/FLAME-1 in bladder tumor cells (RT112); assay: Western blot of apoptosis-related proteins in RT112 cells
Experimental: The observation that tumor cells treated with IL-4 display a reduced sensitivity to chemotherapeutic drugs led us to investigate whether this cytokine would influence the expression of apoptosis regulatory genes. Western blot analysis of apoptosis-related proteins was performed on cancer cell lines treated for 48 hours with IL-4 as compared to untreated or IL-2-treated controls. […] The increased expression of cFlip/FLAME-1 prompted us to investigate if IL-4 could protect tumor cells from death receptor stimulation. CD95 ligand (CD95L) is one of the major effector molecules of cytotoxic T lymphocytes and NK cells.
Cell pellets were washed twice with cold PBS and lysed on ice for 30 minutes with 1% NP40 lysis buffer (20 mM Tris-HCl pH 7.2, 200 mM NaCl, 1% NP40) in the presence of 1 mM phenylmethylsulphonyl fluoride (PMSF) and 2 μg/ml each of aprotinin, leupeptin and pepstatin. Cell debris was removed by centrifugation at 13,000 rpm for 10 minutes at 4° C. Lysate concentration was determined using the Bio-Rad protein assay (Bio-Rad Laboratories, Richmond, Calif.). Aliquots of cell extracts containing 30 μg of total protein were resolved on 10% or 12% SDS-PAGE and transferred to a Hybond-C extra nitrocellulose membrane (Amersham Pharmacia Biotech, Piscataway, N.J.). […]

B1: IL-4: human recombinant IL-4 (protein, UniProt P05112 25-153, looked up)
Interleukin-4: HKCDITLQEIIKTLNSLTEQKTLCTELTVTDIFAASKNTTEKETFCRAATVLRQFYSHHEKDTRCLGATAQQFHRHKQLIRFLKRLDRNLWGLAGLNSCPVKEANQSTLENFLERLKTIMREKYSKCSS
[1]
  Bcl-XL levels in primary breast cancer cells: maintained high Bcl-XL levels
  sensitivity of primary breast cancer cells to chemotherapeutic drugs: low sensitivity to chemotherapeutic drugs
[2]; cytokine pretreatment, 30 ng/ml anti-CD95 agonistic antibody
  anti-CD95-induced apoptosis of LNCaP cells: greatly reduced anti-CD95-induced apoptosis
[2]; two days cytokine pretreatment (20 ng/ml), 300 ng/ml cisplatin or 1 μM vincristine
  drug-induced death of LNCaP cells: significantly protected from drug-induced death
[3]; 48 hours with IL-4
  levels of caspases and other pro- and anti-apoptotic Bcl-2 family members: remained unchanged
[3]; 48 hours with IL-4, compared to untreated or IL-2-treated controls
  levels of Bcl-xL and cFlip/FLAME-1: increased
